Reference: the supplement of paper PMC9170038

System: MS2 coat protein
Test: apparent KD of MS2 coat protein; designed switch direction (-1 OFF switch, 1 ON switch): -1; higher = weaker reporter binding
Outline: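 Designed RNA switches were transcribed on Illumina chips by stalled E. coli RNA polymerase and titrated with SNAP-549-labelled MS2 coat protein from 0.7 or 1.5 nM, doubling to 3 µM. Step length ran from 0.8–1.5 h at the lowest concentration to 10–20 min at the highest. The apparent KD is the median over clusters for each design, from curve-fitted normalised cluster fluorescence.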

[1] = input ligand: microRNA oligo, concentration not stated
[2] = Eterna round: R95, input ligand: microRNA oligo, concentration not stated
[3] = Eterna round: R95, input ligand: FMN 200 uM
[4] = Eterna round: R95, input ligand: none

Sequence: UGUAAGCUAGGAUAUGCUUUGGGAAAGCAUUCCUUCGAUAAACUUGAGGAUCACCCAAGUAGAAGGAGCUUACG [salish99_ex2_r4_007] (Eterna round: R97, puzzle: Exclusion 2)
- apparent KD of MS2 coat protein (input ligand: FMN 200 uM): 14.1 nM
- apparent KD of MS2 coat protein (input ligand: none): 12.8 nM

Sequence: AAUAUACAUGUAGGAUAUCUGCACGUGUAGUGCAGAGAAGGACAUGAGGAUCACCCAUGUAAUUAAGAUCAAUUAUUAAAUAUU [ENG1/3-B3] (Eterna round: R96, puzzle: Exclusion NG 1)
- apparent KD of MS2 coat protein (input ligand: FMN 200 uM): 447 nM
- apparent KD of MS2 coat protein [1]: 32.2 nM
- apparent KD of MS2 coat protein (input ligand: none): 62.3 nM

Sequence: GUGUAGUCAGGAUAUACAUAGGAAGAGAAGAGAAGAGAAGCACAUGAGGAUCACCCAUGUAGAAGGGACAGUGU [Excluse me!! 4 - Jieux - Exclusion 2] (Eterna round: R96, puzzle: Exclusion 2)
- apparent KD of MS2 coat protein [1]: 40.1 nM

Sequence: CACCGUUACCUAGGAUAUAGUACAUGAGGAUCACCCAUGUAAUAAAUGAGAAUUUCGGAUGUAUGCUAGAAGGAGGAAAUCGGC [Ostricism 49 - Jieux - Exclusion NG 2] (Eterna round: R96, puzzle: Exclusion NG 2)
- apparent KD of MS2 coat protein [1]: 29.7 nM

Sequence: CCUAGUUGGUAAGGAUAUCCUACACUGUUCUGACCCGGGCAUGCUACAUGAGGAUCACCCAUGUGGGAGAAGGUGCGUCAACGC [Design 14] (Eterna round: R96, puzzle: Exclusion NG 2)
- apparent KD of MS2 coat protein (input ligand: FMN 200 uM): 36.8 nM
- apparent KD of MS2 coat protein [1]: 19.3 nM
- apparent KD of MS2 coat protein (input ligand: none): 30.6 nM

Sequence: UAUUAGUGAGGAUAUGAGUCGUAGAACAAUAGUACUACGUCUCAGAAGGCACAUGAGGAUCACCCAUGUUCCUU [Fiskers Ex 4 Super Stable 44 mod 35] (puzzle: Exclusion 4)
- apparent KD of MS2 coat protein [2]: 13.6 nM

Sequence: ACAUGAGGAUCACCCAUGUCUGGCUGGUCCGUCUCGGCUGUCGAGGAUAUAGCUCGGUGUCCGCGCUAGAAGGCGGGAGCUGGC [Aenatbe mod 81] (Eterna round: R96, puzzle: Exclusion NG 3)
- apparent KD of MS2 coat protein (input ligand: FMN 200 uM): 135 nM
- apparent KD of MS2 coat protein [1]: 52.2 nM
- apparent KD of MS2 coat protein (input ligand: none): 81 nM

Sequence: AAUUAGCAAGCGAGAUCCCACAUGAGGAUCACCCAUGUGCUCGUCUUAUAAAAGACUGUGACGAUAGUCACGGUCAC [Mat - Sensor, turn-off var - Eli Mod - D25] (Eterna round: R97, puzzle: Sensor, turn-off variant 1)
- apparent KD of MS2 coat protein (input ligand: FMN 200 uM): 15.3 nM
- apparent KD of MS2 coat protein (input ligand: none): 12.3 nM

Sequence: CCGCUGUGAGGAUAUUAGUAGUAGUCAGAAAAGACUAUUACUGAGAAGGCACAUGAGGAUCACCCAUGUCGCGG [Mat - Exclusion 4 - Eli Mod - D49] (Eterna round: R97, puzzle: Exclusion 4)
- apparent KD of MS2 coat protein (input ligand: FMN 200 uM): 39.7 nM
- apparent KD of MS2 coat protein (input ligand: none): 28.8 nM

Sequence: UUGUUAUGUGUAGGAUAUGCAUAUUAUUAUUAUGCAGAAGGACAUGAGGAUCACCCAUGUGUAUUGUUAUUAUAUAUUAUAUAU [Title] (Eterna round: R96, puzzle: Exclusion NG 1)
- apparent KD of MS2 coat protein [1]: 17.1 nM

Sequence: UAUCAUGUAGGAUAUACGUAGCUAUGACCCUCGAGAACUAUACAUGAGGAUCACCCAUGUAGAAGGGCGACUUU [Eternabot (L1) Solution 34] (Eterna round: R97, puzzle: Exclusion 2)
- apparent KD of MS2 coat protein (input ligand: FMN 200 uM): 21.3 nM
- apparent KD of MS2 coat protein (input ligand: none): 17.2 nM

Sequence: AGAUUACGUUAGGAUAUCCGGCCUGACGAGGAUGGAGAAGGAGCGACAUGAGGAUCACCCAUGUGUGGCACUCC [Eternabot (L1) Solution 76] (Eterna round: R97, puzzle: Exclusion 6)
- apparent KD of MS2 coat protein (input ligand: FMN 200 uM): 17.7 nM
- apparent KD of MS2 coat protein (input ligand: none): 18.3 nM

Sequence: AUUAAAGACCGAGGAUAUCGAGGAAAUACACUGCGAGAAGGCGGGUACUCGGACGAUUCGACAUGAGGAUCACCCAUGUGCACA [Tixequ] (Eterna round: R96, puzzle: Exclusion NG 1)
- apparent KD of MS2 coat protein (input ligand: FMN 200 uM): 26.7 nM
- apparent KD of MS2 coat protein [1]: 18.9 nM
- apparent KD of MS2 coat protein (input ligand: none): 25.3 nM

Sequence: CGUGCGUAUGUGAGGAUAUGCUGGUCCUUGGAUCGGCAGAAGGCACAUGAGGAUCACCCAUGUGGUGUCGUCCA [salish99_Bmod_ex4_089] (puzzle: Brourd's mod of Exclusion 4)
- apparent KD of MS2 coat protein [2]: 85.7 nM

Sequence: UUUUACUUAGGAUAUACAUUUUUUUAUUUAUUUAUAAUAUUACAUGAGGAUCACCCAUGUAGAAGGGAGAUUUU [My Design] (Eterna round: R96, puzzle: Exclusion 2)
- apparent KD of MS2 coat protein (input ligand: FMN 200 uM): 76.9 nM
- apparent KD of MS2 coat protein [1]: 64.3 nM
- apparent KD of MS2 coat protein (input ligand: none): 72.3 nM

Sequence: AAAAAACAAGGAUAUACGCAGGAGGGUUGUCUUAAUUUUUGACAUGAGGAUCACCCAUGUAGAAGGUGUUAAAA [JR_Exclusion2_Sub013] (puzzle: Exclusion 2)
- apparent KD of MS2 coat protein [2]: 220 nM

Sequence: CGGAUACAUGAGGAUCACCCAUGUGAGGAUAUCGUACGUUCGUCGAUAGACGAUCGUACGAGAAGGCAUGACCG [Mat - Exclusion 1 - Eli Mod - D34] (Eterna round: R97, puzzle: Exclusion 1)
- apparent KD of MS2 coat protein (input ligand: FMN 200 uM): 71.3 nM
- apparent KD of MS2 coat protein (input ligand: none): 200 nM

Sequence: UAAGAUUACCGAGGAUAUGCUGGUUUCUCUCAAGCAGAAGGCGGACUCAACAUGAGGAUCACCCAUGUAAGACGGGUACUAGAU [Ex NG1 #11] (Eterna round: R96, puzzle: Exclusion NG 1)
- apparent KD of MS2 coat protein (input ligand: FMN 200 uM): 133 nM
- apparent KD of MS2 coat protein [1]: 76.6 nM
- apparent KD of MS2 coat protein (input ligand: none): 574 nM

Sequence: AAUCCACAUGAGGAUCACCCAUGUGAGGAUAUGAUACUAUGUACUUCGGUACAUAGUAUCAGAAGGCAUAUGAA [Ex1-3: 49] (puzzle: Exclusion 1)
- apparent KD of MS2 coat protein [2]: 26.9 nM

Sequence: GUUAGACAUGAGGAUCACCCAUGUGAGGAUAUGAUGUGAAUAAAUAAUUAAUUAAGUAUCAGAAGGCACAUAUG [Mat - Mod of Hyphema D32] (puzzle: Exclusion 1)
- apparent KD of MS2 coat protein [2]: 119 nM

Sequence: CUAACAUGCUGGUGAUCAUACAUGAGGAUCACCCAUGUAACAAGCUUUUUGUUCGUCUUAAUUUAAUUGAUUACUAG [Stov1/8-B3] (Eterna round: R97, puzzle: Sensor, turn-off variant 1)
- apparent KD of MS2 coat protein (input ligand: FMN 200 uM): 177 nM
- apparent KD of MS2 coat protein (input ligand: none): 254 nM

Sequence: CCACGACAUGAGGAUCACCCAUGUGAGGAUAUGGCCUGAAAAGCGUGAGCAGUUUCAAUCAGAAGGCGCGUGGG [salish99_ex1_r4_062] (Eterna round: R97, puzzle: Exclusion 1)
- apparent KD of MS2 coat protein (input ligand: FMN 200 uM): 162 nM
- apparent KD of MS2 coat protein (input ligand: none): 62.2 nM

Sequence: UUAACGUGGGCGUCCCACAGCAAGCUUUUUGCUCGUUUAACAUGAGGAUCACCCAUGUCGCUGCGGGAUCCCUAUGA [Abeisat] (puzzle: Sensor v3, turn-off variant 2)
- apparent KD of MS2 coat protein [3]: 13.5 nM
- apparent KD of MS2 coat protein [2]: 13.1 nM
- apparent KD of MS2 coat protein [4]: 11.6 nM

Sequence: AGCGUGGCUCAGGAUAUCAGCCCUGUGGAGUUCUGAGAAGGGAGCACAUGAGGAUCACCCAUGUGAAAGGGUAC [Useratarin] (puzzle: Exclusion 6)
- apparent KD of MS2 coat protein [3]: 103 nM
- apparent KD of MS2 coat protein [2]: 24.7 nM
- apparent KD of MS2 coat protein [4]: 29.7 nM

Sequence: CUCUUGUGAGGAUAUCAGGUGUGCUAGCGUACUGGUACAUCUGAGAAGGCACAUGAGGAUCACCCAUGUUUCUU [JL-ex4-3.21 Brourd mod] (puzzle: Exclusion 4)
- apparent KD of MS2 coat protein [2]: 78.1 nM

Sequence: UAAGGACAUGAGGAUCACCCAUGUUAGGAUAUGCCGAGGGAGACCCGUGUUGACACUUGCAGAAGGAGUAUGGG [Eternabot (L1) Solution 25] (Eterna round: R97, puzzle: Exclusion 1)
- apparent KD of MS2 coat protein (input ligand: FMN 200 uM): 70.4 nM
- apparent KD of MS2 coat protein (input ligand: none): 86.2 nM

Sequence: CUUUUGUGAGGAUAUCAGUAGUAUAAAAUUAAAAUUACUACUGAGAAGGCACAUGAGGAUCACCCAUGUUCCUC [Mat - Exclusion 4 - Mod of Salish - D75] (puzzle: Exclusion 4)
- apparent KD of MS2 coat protein [2]: 36 nM

Sequence: GGAGAGUCAGGAUAUCGAAGGUAGUGGAGAGGAGUGUGGUACGAGAAGGGACAUGAGGAUCACCCAUGUAGGUG [JR_Exclusion4)Sub010] (puzzle: Exclusion 4)
- apparent KD of MS2 coat protein [3]: 306 nM
- apparent KD of MS2 coat protein [2]: 423 nM
- apparent KD of MS2 coat protein [4]: 478 nM

Sequence: AAAAGAACAGGAUAUUCGGGAAAUAACAUGAGGAUCACCCAUGUUAACGCGGGUGAGAACGAAGAAGGGUUCUAAA [Atusceon] (puzzle: Exclusion 5)
- apparent KD of MS2 coat protein [3]: 114 nM
- apparent KD of MS2 coat protein [2]: 96.4 nM
- apparent KD of MS2 coat protein [4]: 93.1 nM

Sequence: UAUGUUGUUGUGAGGAUAUACUUAGUUUGACCGUAGUAGAAGGCACAUGAGGAUCACCCAUGUAGAUUUUUGGU [JR_BME4_Sub007] (puzzle: Brourd's mod of Exclusion 4)
- apparent KD of MS2 coat protein [2]: 9.49 nM

Sequence: GGUUUUCUUUUCCUUUCUUACAUGAGGAUCACCCAUGUUUCUUGUCGUGCUCGCGUUGCUCGUCUGUCUGUCUGUUG [salish99_TOv1_r3_076(!)] (puzzle: Sensor v3, turn-off variant 1)
- apparent KD of MS2 coat protein [3]: 45.9 nM
- apparent KD of MS2 coat protein [2]: 35.7 nM
- apparent KD of MS2 coat protein [4]: 56.9 nM

Sequence: GUGCCGCGAGGAUAUACAGACGGGUCCAAAACGUGUCUCGGACUUGAGGAUCACCCAAGUAGAAGGCGUUUCAG [salish99_ex2_r4_620] (Eterna round: R97, puzzle: Exclusion 2)
- apparent KD of MS2 coat protein (input ligand: FMN 200 uM): 18.6 nM
- apparent KD of MS2 coat protein (input ligand: none): 18.4 nM

Sequence: ACGCCUCCUGUCAGGAUAUGCAUCGGGCUUCCGCAGCAGAAGGGACAUGAGGAUCACCCAUGUCAAAUAAAAUC [Onsoqule] (puzzle: Brourd's mod of Exclusion 4)
- apparent KD of MS2 coat protein [2]: 16.3 nM

Sequence: GAAUAGAGAGGAUAUGCGUAGUAGGUAGUAAGAUAUAUAUGACAUGAGGAUCACCCAUGUAGAAGGCUCAGAUA [EX2 #2] (Eterna round: R97, puzzle: Exclusion 2)
- apparent KD of MS2 coat protein (input ligand: FMN 200 uM): 38.3 nM
- apparent KD of MS2 coat protein (input ligand: none): 35.8 nM

Sequence: GGAUCGAAUGUGAGGAUAUACCACUGGAUACAGUGGUAGAAGGCACAUGAGGAUCACCCAUGUCUCUACGAUCC [Fiskers BMX 4 - 43] (puzzle: Brourd's mod of Exclusion 4)
- apparent KD of MS2 coat protein [2]: 21 nM

Sequence: AGAGGACAUGAGGAUCACCCAUGUAAGGAUAUGCGGAGAGUUUGGAGAGGUCGGGUAGGCAGAAGGUACAGGAG [JR_Exclu1_Sub050] (puzzle: Exclusion 1)
- apparent KD of MS2 coat protein [3]: 82.2 nM
- apparent KD of MS2 coat protein [2]: 92.5 nM
- apparent KD of MS2 coat protein [4]: 89.4 nM
